# According to article PMC4066585 (Journal of immunology (Baltimore, Md. : 1950), 2014):
# How the values were obtained:
# proenzyme C3bB = proenzyme C3bB (Homo sapiens, UniProt P01024;P00751); assay: SPR
# C3b = C3b (human, UniProt P01024); assay: SPR
# proenzyme C3bB, sequence (P00751 whole entry, looked up, chain 1 of 2): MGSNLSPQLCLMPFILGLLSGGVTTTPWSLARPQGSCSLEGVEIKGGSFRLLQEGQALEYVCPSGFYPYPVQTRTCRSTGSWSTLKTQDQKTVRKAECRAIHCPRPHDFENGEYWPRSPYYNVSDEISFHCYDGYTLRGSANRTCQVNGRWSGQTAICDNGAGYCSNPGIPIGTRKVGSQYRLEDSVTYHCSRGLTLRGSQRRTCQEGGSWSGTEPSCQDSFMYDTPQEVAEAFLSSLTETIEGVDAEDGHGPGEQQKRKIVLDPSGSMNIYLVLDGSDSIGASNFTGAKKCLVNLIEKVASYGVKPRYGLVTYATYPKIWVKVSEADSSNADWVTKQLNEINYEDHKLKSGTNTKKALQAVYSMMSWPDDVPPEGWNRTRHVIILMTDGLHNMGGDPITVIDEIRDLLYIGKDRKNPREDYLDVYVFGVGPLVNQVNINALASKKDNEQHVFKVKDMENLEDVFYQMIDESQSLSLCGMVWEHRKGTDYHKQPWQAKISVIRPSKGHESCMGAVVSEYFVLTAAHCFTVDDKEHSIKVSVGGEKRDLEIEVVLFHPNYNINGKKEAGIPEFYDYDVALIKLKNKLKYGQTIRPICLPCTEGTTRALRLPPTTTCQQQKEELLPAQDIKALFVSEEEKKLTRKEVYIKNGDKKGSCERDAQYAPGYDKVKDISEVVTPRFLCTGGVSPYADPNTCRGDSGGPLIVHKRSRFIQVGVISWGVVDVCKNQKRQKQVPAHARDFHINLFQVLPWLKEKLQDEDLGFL
# proenzyme C3bB, sequence (P01024 whole entry, looked up, chain 2 of 2): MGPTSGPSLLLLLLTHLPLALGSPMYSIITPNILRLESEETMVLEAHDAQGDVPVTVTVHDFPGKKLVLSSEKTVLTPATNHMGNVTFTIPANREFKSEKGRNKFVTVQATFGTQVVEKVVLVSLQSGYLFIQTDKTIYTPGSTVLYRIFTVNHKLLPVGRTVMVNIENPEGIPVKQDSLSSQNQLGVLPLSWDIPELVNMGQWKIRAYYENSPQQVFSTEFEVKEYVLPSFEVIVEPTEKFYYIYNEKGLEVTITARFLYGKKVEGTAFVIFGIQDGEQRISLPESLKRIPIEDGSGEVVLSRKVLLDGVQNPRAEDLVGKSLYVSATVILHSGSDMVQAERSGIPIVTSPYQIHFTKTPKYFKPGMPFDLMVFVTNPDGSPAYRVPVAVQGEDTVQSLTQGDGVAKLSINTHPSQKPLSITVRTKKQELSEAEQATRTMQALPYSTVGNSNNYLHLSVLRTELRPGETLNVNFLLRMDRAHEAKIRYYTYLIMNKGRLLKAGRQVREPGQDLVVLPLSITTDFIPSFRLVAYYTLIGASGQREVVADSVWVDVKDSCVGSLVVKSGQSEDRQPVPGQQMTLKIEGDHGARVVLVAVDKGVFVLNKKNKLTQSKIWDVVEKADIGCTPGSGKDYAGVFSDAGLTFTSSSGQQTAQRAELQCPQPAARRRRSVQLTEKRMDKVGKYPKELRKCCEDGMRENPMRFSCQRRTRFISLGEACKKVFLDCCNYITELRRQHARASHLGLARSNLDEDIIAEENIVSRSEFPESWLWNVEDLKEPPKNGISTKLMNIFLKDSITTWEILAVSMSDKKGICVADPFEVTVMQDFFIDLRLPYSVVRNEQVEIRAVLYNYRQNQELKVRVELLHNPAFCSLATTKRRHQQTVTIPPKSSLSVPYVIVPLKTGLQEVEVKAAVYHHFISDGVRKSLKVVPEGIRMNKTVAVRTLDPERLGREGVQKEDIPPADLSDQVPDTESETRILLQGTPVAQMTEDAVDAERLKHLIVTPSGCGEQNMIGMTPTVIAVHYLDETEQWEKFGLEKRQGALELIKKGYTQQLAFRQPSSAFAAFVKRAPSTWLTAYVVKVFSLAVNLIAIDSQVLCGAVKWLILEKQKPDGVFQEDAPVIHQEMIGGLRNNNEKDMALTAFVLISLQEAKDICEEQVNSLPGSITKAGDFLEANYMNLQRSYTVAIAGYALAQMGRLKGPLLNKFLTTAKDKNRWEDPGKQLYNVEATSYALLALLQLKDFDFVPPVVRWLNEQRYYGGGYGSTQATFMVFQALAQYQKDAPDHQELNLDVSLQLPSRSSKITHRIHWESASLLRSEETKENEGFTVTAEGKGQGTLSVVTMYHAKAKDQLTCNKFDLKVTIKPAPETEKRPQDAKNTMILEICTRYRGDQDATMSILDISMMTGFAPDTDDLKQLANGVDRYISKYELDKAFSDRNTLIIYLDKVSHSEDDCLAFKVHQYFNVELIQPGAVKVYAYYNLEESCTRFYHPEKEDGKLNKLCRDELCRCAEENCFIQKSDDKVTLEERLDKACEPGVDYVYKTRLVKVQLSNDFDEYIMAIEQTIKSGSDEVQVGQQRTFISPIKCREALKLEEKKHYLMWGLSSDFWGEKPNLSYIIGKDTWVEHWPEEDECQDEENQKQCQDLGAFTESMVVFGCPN
binding result (proenzyme C3bB),Kd (C3b) [nM],Binder
no binding (tested: 20 μg/ml),28,"mAb H17 (antibody, V domains shown) VH: EVQLQESGPSLVKPSQTLSLTCTVSGDSITSDYWNWIRQAPGKGLESMGYITYSGTTYYNPSLKSRVTISRDTSKNQYYMELSSLRSEDTATYYCARGVDYEPSYYFDYWGQGTLVTVSS VL: DIQMTQSPSSLSASVGDRVTITCSASQGISNYLNWYQQKPGKAPKLLIYYTSSLHSGVPSRFSGSGSGTDYSLTISSLQPEDIATYYCQQYSNLPWTFGQGTKVEIK"
no binding (tested: 20 μg/ml),,"mAb 3E7 (antibody, V domains shown) VH: EVQLQESGPSLVKPSQTLSLTCSVTGDSITSDYWNWIRKFPGNKLESMGYITYSGTTYYNPSLKSRISITRDTSKNQYYLQLNSVTSEDTATYYCARGVDYEPSYYFDYWGQGTTLTVSS VL: DIQMTQTTSSLSASLGDRVTISCSASQGISNYLNWYQQKPDGTVKLLIYYTSSLHSGVPSRFSGSGSGTDYSLTISNLEPEDIATYYCQQYSNLPWTFGGGTKLEIK"
